Measured values taken from US20130280279A1, “PHARMACEUTICAL COMPOSITION OF A COMPLEX OF AN ANTI-DIG ANTIBODY AND DIGOXIGENIN THAT IS CONJUGATED TO A PEPTIDE” (HOFFMANN-LA ROCHE INC., priority 2011, published 2013).
*1 amine or outer side, *2 acyl side, *3 side chain or, on linkers, in order; H or OH if unused. Where a SMILES comes first, the peptide text is derived from it. Primed or numbered codes have the meaning given here. Where no end group is shown, it is not given here. [ ]: non-standard residue; d: D form. The star is where a group is joined. Pqa = 4-oxo-6-(1-piperazinyl)-3(4H)-quinazoline-acetic acid (CAS 889958-08-1), O=C(Cn1cnc2ccc(N3CCN([*:1])CC3)cc2c1=O)[*:2]; Pqa″ = 4-oxo-6-(1-piperazinyl)-3(4H)-quinazoline-acetic acid, O=C(Cn1cnc2ccc(N3CCN([*:1])CC3)cc2c1=O)[*:2]; Tyr(2,6-F2) = N[C@@H](Cc1c(F)cc(O)cc1F)C(=O)O; NMeR = CN[C@@H](CCCNC(=N)N)C(=O)O; Piv = CC(C)(C)C(=O)*; Bz = O=C(c1ccccc1)*

system: H322M cells; assay: CytoTox-Glo cytotoxicity assay; format: cell-based, human; settings: CytoTox-Glo
Protocol: To evaluate whether additions or alterations of the peptide Melittin, FALLv1 and FALLv2 by digoxygenin alters its biological activity, we performed in vitro assays. As these peptides are cytotoxic, their biological activity can easily be analyzed by monitoring the number of dead cells. To measure this number, the CytoTox-Glo assay (Promega Madison, WI) was used. Table 2 lists results of these CytoTox-Glo-assays that were performed to assess the biological activity of the Melittin, Fallv1 and Fallv2 peptides and their DIG-modified variants. For these assays, H322M cells were seeded at a density of 15.000 cells per well in 96 well plates. The cells were incubated for 24 hours at 37° C., 5% CO2 and 85% humidity in RPMI with 10% FCS, Na+ Pyrovate, L-Glutamine and NEAA mix. The peptide and it's DIG-modified variant were then added to the cells in the concentrations indicated. The cells were incubated for further 48 hours. After this period, the cells were treated with the CytoTox-Glo-assay reagent according to the manufacturers instructions. In brief, this assay detects dead cells via the presence of a protease in the medium that cleaves a […] peptide in the reagent. The luminescence of this assay therefore represents dead cells. The 96 well plates were then analyzed in a InfiniteF200 luminescence reader (Tecan Austria, Groding). […] Not only covalent coupling to haptens, but also complexation of peptides to large antibody molecules may influence their biological activity. Because IgG-derived molecules are large proteins (10-40 fold the size of peptides), it cannot a priori be excluded that such molecules may sterically hinder accessibility of peptide and therefore interfere with biological activity. To address this topic, we analyzed the in vitro activity of peptide-antibody complexes for the cytotoxic peptides FALLv1 and Fam5b. Again, we made use of the fact that these peptide are cytotoxic towards tumor cell lines and therefore tested their functionality in cytotoxicity and viability assays as described above. […] Moreover, utilizing bispecific antibodies for targeting such peptides to tumor cells, we could show increased peptide-mediated cytotoxicity towards targeted cells compared to nontargeted cells (as shown in PCT/EP2010/004051).

| Compound | activity upon conjugation to digoxygenin |
| --- | --- |
| CC[C@H](C)[C@H](NC(=O)[C@H](CCCCN)NC(=O)[C@H](CCC(=O)O)NC(=O)[C@H](CCCCN)NC(=O)[C@H](CO)NC(=O)[C@H](CCCCN)NC(=O)[C@H](CCCNC(=N)N)NC(=O)[C@H](Cc1ccccc1)NC(=O)[C@H](Cc1ccccc1)NC(=O)[C@H](CC(=O)O)NC(=O)CNC(=O)[C@H](CC(C)C)NC(=O)[C@H](CC(C)C)NC(=O)[C@H](C)NC(=O)[C@@H](N)Cc1ccccc1)C(=O)NCC(=O)N[C@@H](CCCCN)C(=O)N[C@@H](CCC(=O)O)C(=O)N[C@@H](Cc1ccccc1)C(=O)N[C@@H](CCCCN)C(=O)N[C@@H](CCCNC(=N)N)C(=O)N[C@H](C(=O)N[C@H](C(=O)N[C@@H](CCC(N)=O)C(=O)N[C@@H](CCCNC(=N)N)C(=O)N[C@H](C(=O)N[C@@H](CCCCN)C(=O)N[C@@H](CC(=O)O)C(=O)N[C@@H](Cc1ccccc1)C(=O)N[C@@H](CC(C)C)C(=O)N[C@@H](CCCNC(=N)N)C(=O)N[C@@H](CC(N)=O)C(=O)N[C@@H](CC(C)C)C(=O)N[C@H](C(=O)N1CCC[C@H]1C(=O)N[C@@H](CCCNC(=N)N)C(=O)N[C@H](C(=O)N[C@@H](CCC(=O)O)C(=O)N[C@@H](CO)C(N)=O)[C@@H](C)O)C(C)C)[C@@H](C)CC)C(C)C)[C@@H](C)CC [FALLv1] | similarly retained |
| CC[C@H](C)[C@H](NC(=O)[C@H](CCCCN)NC(=O)[C@H](CCC(=O)O)NC(=O)[C@H](CCCCN)NC(=O)[C@H](CO)NC(=O)[C@H](CCCCN)NC(=O)[C@H](CCCNC(=N)N)NC(=O)[C@H](Cc1ccccc1)NC(=O)[C@H](Cc1ccccc1)NC(=O)[C@H](CC(=O)O)NC(=O)CNC(=O)[C@H](CC(C)C)NC(=O)[C@H](CC(C)C)NC(=O)[C@H](C)NC(=O)[C@H](Cc1ccccc1)NC(=O)[C@H](CCCNC(=N)N)NC(=O)[C@H](CCCCN)NC(=O)[C@@H](N)CC(N)=O)C(=O)NCC(=O)N[C@@H](CCCCN)C(=O)N[C@@H](CCC(=O)O)C(=O)N[C@@H](Cc1ccccc1)C(=O)N[C@@H](CCCCN)C(=O)N[C@@H](CCCNC(=N)N)C(=O)N[C@H](C(=O)N[C@H](C(=O)N[C@@H](CCC(N)=O)C(=O)N[C@@H](CCCNC(=N)N)C(=O)N[C@H](C(=O)N[C@@H](CCCCN)C(=O)N[C@@H](CC(=O)O)C(=O)N[C@@H](Cc1ccccc1)C(=O)N[C@@H](CC(C)C)C(=O)N[C@@H](CCCNC(=N)N)C(=O)N[C@@H](CC(N)=O)C(=O)N[C@@H](CC(C)C)C(=O)N[C@H](C(=O)N1CCC[C@H]1C(=O)N[C@@H](CCCNC(=N)N)C(N)=O)C(C)C)[C@@H](C)CC)C(C)C)[C@@H](C)CC [FALLv2] (H-NKRFALLGDFFRKSKEKIGKEFKRIVQRIKDFLRNLVPR-NH2; N-terminus and C-terminus assumed) | similarly retained |

same assay, conditions: cytotoxicity and viability assays, tumor cell lines

| Compound | biological activity of digoxigenated peptide complexed with digoxigenin binding antibody derivatives |
| --- | --- |
| CC[C@H](C)[C@H](NC(=O)[C@H](CCCCN)NC(=O)[C@H](CCC(=O)O)NC(=O)[C@H](CCCCN)NC(=O)[C@H](CO)NC(=O)[C@H](CCCCN)NC(=O)[C@H](CCCNC(=N)N)NC(=O)[C@H](Cc1ccccc1)NC(=O)[C@H](Cc1ccccc1)NC(=O)[C@H](CC(=O)O)NC(=O)CNC(=O)[C@H](CC(C)C)NC(=O)[C@H](CC(C)C)NC(=O)[C@H](C)NC(=O)[C@@H](N)Cc1ccccc1)C(=O)NCC(=O)N[C@@H](CCCCN)C(=O)N[C@@H](CCC(=O)O)C(=O)N[C@@H](Cc1ccccc1)C(=O)N[C@@H](CCCCN)C(=O)N[C@@H](CCCNC(=N)N)C(=O)N[C@H](C(=O)N[C@H](C(=O)N[C@@H](CCC(N)=O)C(=O)N[C@@H](CCCNC(=N)N)C(=O)N[C@H](C(=O)N[C@@H](CCCCN)C(=O)N[C@@H](CC(=O)O)C(=O)N[C@@H](Cc1ccccc1)C(=O)N[C@@H](CC(C)C)C(=O)N[C@@H](CCCNC(=N)N)C(=O)N[C@@H](CC(N)=O)C(=O)N[C@@H](CC(C)C)C(=O)N[C@H](C(=O)N1CCC[C@H]1C(=O)N[C@@H](CCCNC(=N)N)C(=O)N[C@H](C(=O)N[C@@H](CCC(=O)O)C(=O)N[C@@H](CO)C(N)=O)[C@@H](C)O)C(C)C)[C@@H](C)CC)C(C)C)[C@@H](C)CC [FALLv1] | retain their biological activities |
| QHRYQQLGAGLKVLFKKTHRILRRLFNLAK (listed as Homo sapiens) [Fam5b] | retain their biological activities |

target: T1, Y2R (Homo sapiens, UniProt P49146); assay: not given; settings: values of WO 2007/065808; read-out: Y2R EC50 (nM) cAMP; cited from earlier work
T1 sequence (P49146 1-381): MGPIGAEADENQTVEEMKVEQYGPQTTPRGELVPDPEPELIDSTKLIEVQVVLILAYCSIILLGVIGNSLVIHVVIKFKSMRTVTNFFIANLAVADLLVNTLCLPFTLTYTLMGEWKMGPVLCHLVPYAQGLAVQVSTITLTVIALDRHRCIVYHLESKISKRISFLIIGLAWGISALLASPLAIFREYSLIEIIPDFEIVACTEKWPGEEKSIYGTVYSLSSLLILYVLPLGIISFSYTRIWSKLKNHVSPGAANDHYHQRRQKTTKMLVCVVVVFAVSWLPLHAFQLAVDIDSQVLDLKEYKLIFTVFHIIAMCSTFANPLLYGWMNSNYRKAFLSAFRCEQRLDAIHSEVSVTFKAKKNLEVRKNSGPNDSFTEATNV

| Compound | EC50 [nM] |
| --- | --- |
| Adamtyl-IK-Pqa-RHYLNWVTRQ(N-methyl)RY (adamantyl-IK[Pqa]RHYLNWVTRQ[NMeR]Y; ends and bridges not checked) [Example 33] | 2.9 |
| IK-Pqa-RHYLNLVTRQ(N-methyl)R(3-F)Phe [Example 17] | 0.75 |
| IK-Pqa-RHYLNLVTRQ (N-methyl)R(3-5 di F)Y [Example 8] | 0.36 |
| Cyclohexyl-IK-Pqa-RHYLNWVTRQ(N-methyl)RY (cyclohexyl-IK[Pqa]RHYLNWVTRQ[NMeR]Y; ends and bridges not checked) [Example 31] | 1.37 |
| IK-Pqa-RHYLNLVTRQ(N-methyl)RW (IK[Pqa]RHYLNLVTRQ[NMeR]W; ends and bridges not checked) [Example 21] | 1.06 |
| Benzoyl-IK-Pqa-RHYLNWVTRQ(N-methyl)RY (Bz-IK[Pqa]RHYLNWVTRQ[NMeR]Y; ends and bridges not checked) [Example 32] | 0.66 |
| Pentyl-IK-Pqa-RHYLNWVTRQ(N-methyl)RY (Pentyl-IK[Pqa″]RHYLNWVTRQ[NMeR]Y) [Example 29] | 0.51 |
| Ac-IK-Pqa-RHYLNWVTRQ(N-methyl)R(2-6 di F)Y (Ac-IK[Pqa]RHYLNWVTRQ[NMeR][Tyr(2,6-F2)]) [Example 27] | 0.07 |
| IK-Pqa-RHYLNLVTRQ(N-methyl)R(4-CF3)Phe [Example 16] | 3.55 |
| IK-P qa-RHYLNLVTRQ (N-methyl)R(2,3.4,5,6-Penta-F)Phe [Example 18] | 2.5 |
| IK-Pqa-RHYLNLVTRQ(N-methyl)RF(O—CH3) [Example 11] | 0.55 |
| IK-Pqa-RHYLNLVTRQR-C-α-Me-Tyr [Example 24] | 1.35 |
| IK-Pqa-RHYLNWVTRQ(N-methyl)RY (IK[Pqa]RHYLNWVTRQ[NMeR]Y; ends and bridges not checked) [Example 25] | 0.25 |
| IK-Pqa-RHYLNLVTRQ(N-methyl)R(3.4-diC1)Phe [Example 19] | 1.47 |
| Trimetylacetyl-IK-Pqa-RHYLNWVTRQ(N-methyl)RY (Piv-IK[Pqa″]RHYLNWVTRQ[NMeR]Y) [Example 30] | 0.26 |
| INle-Pqa-RHYLNWVTRQ(N-methyl)RY (IXXRHYLNWVTRQRY; Nle, Pqa linker, N-methyl Arg) [Example 26] | 0.108 |
| IK-Pqa-RHYLNLVTRQ(N-methyl)R(m-)Y [Example 6] | 1.5 |
| IK-Pqa-RHYLNLVTRQ(N-methyl)R(2-6 di F)Y [Example 9] | 0.19 |
| IK-Pqa-RHYLNLVTRQ(N-methyl)R(1)Nal [Example 22] | 1.14 |
| IK-Pqa-RHYLNLVTRQ(N-methyl)RCha [Example 20] | 0.5 |
| IK-Pqa-RHYLNLVTRQ(N-methyl)RF [Example 12] | 0.69 |
| IK-Pqa-RHYLNLVTRQ(N-methyl)RY [Example 5] | 0.42 |
| IK-Pqa-RHYLNLVTRQ(N-methyl)R(2)Nal [Example 23] | 2.4 |
